For test [1], the target named is T1, human CXCR3 (human, UniProt P49682 1-368).
T1 construct: whole, on cells; in FACS and chemotaxis on whole transfected HEK or L1.2 cells; also called GPR9
T1 sequence (looked up): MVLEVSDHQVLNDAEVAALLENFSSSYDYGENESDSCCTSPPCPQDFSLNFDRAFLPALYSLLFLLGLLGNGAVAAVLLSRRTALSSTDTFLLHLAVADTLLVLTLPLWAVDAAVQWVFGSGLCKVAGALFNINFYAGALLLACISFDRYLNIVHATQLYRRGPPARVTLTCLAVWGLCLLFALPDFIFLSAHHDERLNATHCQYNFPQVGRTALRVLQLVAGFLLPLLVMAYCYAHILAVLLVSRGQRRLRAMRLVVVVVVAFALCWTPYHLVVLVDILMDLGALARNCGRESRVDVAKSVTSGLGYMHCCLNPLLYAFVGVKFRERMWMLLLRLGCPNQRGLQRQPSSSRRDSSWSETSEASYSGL
Description: equilibrium competition receptor binding, SPA, [125I]-CXCL11 tracer, membranes of CXCR3-expressing HEK cells. Here is the method:
The assays were carried out on membranes from HEK cells stably expressing CXCR3 using a Scintillation Proximity Assay (SPA), with [¹²⁵I]-CXCL11 as tracer. Radiolabelled CXCL11 (recombinant human I-TAC; Peprotech) was generated and tested according to the [¹²⁵I] supplier (Amersham; specific activity of […]), also to check for CXCR3-expressing HEK and L1.2 clones positively stained during FACS analysis.
Competitors were prepared by serial dilutions (range from 10⁻⁶ to 10⁻¹² M) of the unlabelled CXCL11, or one of its mutant, in the binding buffer (50 mM HEPES pH 7.2, 1 mM CaCl₂, 5 mM MgCl₂, 0.15 M NaCl and 0.5% Bovine Serum Albumin). Wheat germ SPA beads (Amersham) were solubilised in PBS to 50 mg/ml, and diluted in the binding buffer to a 10 mg/ml, and the final concentration in the assay was 0.25 mg/well. Cell membranes expressing CXCR3 were stored at −80° C. and diluted in the binding buffer to 20 μg/ml. Equal volumes of membrane and beads stocks were mixed before performing the assay to reduce background. The final membrane concentration was 5 μg/well and that of [¹²⁵I]-CXCL11 was 0.05 nM. The plates were incubated at room temperature with agitation for 4 hours. Radioactivity was counted (1 minute/well) in a beta counter. Data from triplicate samples were analysed using Prism® software (GraphPad).
Finally, an equilibrium competition receptor-binding assay was performed to compare the properties of the muteins on the binding of the specific receptor CXCR3 (FIG. 3). Samples containing a constant amount of radiolabelled, commercial CXCL11 were mixed with serial dilutions of CXCL11-WT, or of one of the muteins, and then incubated with membranes prepared from CXCR3-expressing HEK cells. […] Therefore, the affinity for the receptor is substantially retained in heparin-binding defective CXCL11-WT carboxyl-terminal mutants, whilst the mutations in amino-terminus affect specifically receptor binding, a feature which appears as clearly distinct.

Test [2] deals with T1, human CXCR3. Kind of test: radioligand equilibrium binding on CXCR3-transfected HEK and L1.2 clones.

The record followed here is patent US20060204498A1 (MERCK SERONO, published 2006).

B1: mature human CXCL11 (CXCL11-WT) (ligand)
chain: FPMFKRGRCLCIGPGVKAVKVADIEKASIMYPSNNCDKIEVIITLKENKGQRCLNPKSKQARLIIKKVERKNF
notes: 73 residues with no additional residues; also called hCXCL11; I-TAC
As to B1, in test [1], the binding result is recorded as “binds”.

B2: [125I]-CXCL11 (radiolabelled recombinant human I-TAC; Peprotech) (ligand, UniProt O14625 22-94, looked up)
chain: FPMFKRGRCLCIGPGVKAVKVADIEKASIMYPSNNCDKIEVIITLKENKGQRCLNPKSKQARLIIKKVERKNF
modifications: [125I] label, site not stated
notes: Commercial protein; also called Radiolabelled CXCL11; radiolabelled, commercial CXCL11
B2: the binding result in test [2] is reported as “binds”.

B3: CXCL11-4B4 (ligand)
chain: FPMFKRGRCLCIGPGVKAVKVADIEKASIMYPSNNCDKIEVIITLKENKGQRCLNPKSKQARLIIAAVEAANF
notes: Mutein of mature human CXCL11; E. coli, leader cleaved with caspase 8; also called CXCLII-4B4
For the molecule B3, in test [1], the “reduction in the affinity for CXCR3 against CXCL11-WT” value (from here on “reduction in the affinity for CXCR3”) is ≤ 1 order of magnitude.

B4: CXCL11-2B3 (ligand)
chain: FPMFKRGRCLCIGPGVKAVKVADIEKASIMYPSNNCDKIEVIITLAENAGQACLNPKSKQARLIIKKVERKNF
notes: Mutein of mature human CXCL11; E. coli, leader cleaved with caspase 8; also called CXCLII-2B3
Consider B4, for which the “reduction in the affinity for CXCR3” value in test [1] is ≤ 1 order of magnitude.

B5: CXCL11-3B3 (ligand)
chain: FPMFKRGRCLCIGPGVKAVKVADIEKASIMYPSNNCDKIEVIITLKENKGQRCLNPASAQAALIIKKVERKNF
notes: Mutein of mature human CXCL11; E. coli, leader cleaved with caspase 8; also called CXCLII-3B3
Turning to B5, the “reduction in the affinity for CXCR3” value in test [1] was ≤ 1 order of magnitude.
